Source: publication PMC10696660

Biological target: AqpZ (UniProt P60844)
Assay: native MS

- stoichiometry N: 4
Substance: AqpZ (from UniProt P60844 1-231) (natural protein)
